Experiments:
[1] = target: T1, overlapping peptide P4 (12 amino acids, FIG. 3 panel A) (human); assay: ELISA: 500 ng peptide coated per well, 29E4 titrated 0-1000 ng/mL, HRP goat anti-rabbit Ig 1:16,000, ABS 450 nm, duplicates
T1 peptide: PNIPFPPQGFKQ
Excerpt: (§1) HRP Goat anti-rabbit Ig was applied at 1:16,000 dilution in all reactions.
(§2) Peptides were synthesized to achieve ≥70% HPLC purity by a commercial vendor (GenScript Biotech, Piscataway, NJ). Peptides were reconstituted in either water, or with addition of acetonitrile, methanol, 10% acetic acid, or DMSO, depending on the overall charge of each peptide. Key residues required for mAb binding were probed by ELISA using overlapping peptides, truncated peptides and alanine substituted peptides. Reactions were performed in duplicate using NUNC 96-well flatbottom MaxiSorp plates (Thermo Scientific). After coating each well with 500 ng of peptide in 100 μL coating buffer (50 mM NaHCO₃, pH 9.6), the plates were sealed and incubated at 4° C. overnight. […] Plates were then washed once with wash buffer, incubated with 100 μL mAb 29E4 (serially diluted from 1 mg/mL) for 1 hour at 37° C. Plates were further washed four times with wash buffer, and then incubated at 37° C. with 100 μL of a horse radish peroxidase (HRP)-conjugated secondary antibody against the primary antibody, diluted 1:16,000 according to manufacturer's protocols (KPL, Inc., Gaithersburg, MD). After washing four times with wash buffer, 100 μL of K-Blue Aqueous TMB substrate (Neogen, Lexington, KY) was added to the plates and incubated uncovered for 30 minutes at room temperature. To stop the reaction, 100 μL of 2 N Sulphuric acid was added to each well and absorbance were measured immediately at 450 nm. All dilutions of reagents were performed in ELISA diluent (20% NGS in 1×PBS with 0.1% Triton-X 100).

[2] = target: T2, P5 (alanine substituted, FIG. 3 panel E); assay: ELISA: 500 ng peptide coated per well, 29E4 at 40 ng/mL, HRP goat anti-rabbit Ig 1:16,000, ABS 450 nm, duplicates [CONT. 2]
T2 construct: not the overlapping peptide P5 of panel A; also called M215 to alanine
T2 sequence (peptide, as listed by the source): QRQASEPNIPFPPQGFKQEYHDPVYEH
Excerpt: as §1, §2

[3] = target: T3, P19 (alanine substituted, FIG. 3 panel E); assay: as above
T3 construct: also called Q229 to alanine
T3 sequence (peptide, as listed by the source): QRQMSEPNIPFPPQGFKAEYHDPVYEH
Excerpt: as §1, §2

[4] = target: T4, P26 (alanine substituted, FIG. 3 panel E); assay: as above
T4 construct: also called Y236 to alanine
T4 sequence (peptide, as listed by the source): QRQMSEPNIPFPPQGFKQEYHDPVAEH
Excerpt: as §1, §2

[5] = target: T5, P2 (alanine substituted, FIG. 3 panel E); assay: as above
T5 construct: not the overlapping peptide P2 of panel A; also called Q212 to alanine
T5 sequence (peptide, as listed by the source): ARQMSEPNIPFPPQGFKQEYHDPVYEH
Excerpt: as §1, §2

[6] = target: T6, P14 (alanine substituted, FIG. 3 panel E); assay: as above
T6 construct: also called P224 to alanine
T6 sequence (peptide, as listed by the source): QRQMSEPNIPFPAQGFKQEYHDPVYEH
Excerpt: as §1, §2

[7] = target: T7, P25 (alanine substituted, FIG. 3 panel E); assay: as above
T7 construct: also called V235 to alanine
T7 sequence (peptide, as listed by the source): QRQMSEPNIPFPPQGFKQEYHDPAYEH
Excerpt: as §1, §2

[8] = target: T8, P16 (alanine substituted, FIG. 3 panel E); assay: as above
T8 construct: also called G226 to alanine
T8 sequence (peptide, as listed by the source): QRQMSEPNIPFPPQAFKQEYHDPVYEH
Excerpt: as §1, §2

[9] = target: T9, P21 (alanine substituted, FIG. 3 panel E); assay: as above
T9 construct: also called Y231 to alanine
T9 sequence (peptide, as listed by the source): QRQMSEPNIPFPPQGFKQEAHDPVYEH
Excerpt: as §1, §2

[10] = target: T10, ETV1 immunogenic peptide P1 (human); assay: SPR (Biacore T200), antibody amine-coupled on CM5 chip, peptide as analyte, 1:1 binding fit
T10 construct: 27 amino acid peptide, ETV1 residues 212-238; also called immunogen peptide; ETV1 P1 peptide
T10 sequence (peptide, as listed by the source): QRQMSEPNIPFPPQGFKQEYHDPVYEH
Protocol: Affinity measurements using SPRi was performed using a Biacore T200 instrument (Cytiva, Marlborough, MA) by Creative Biolabs (Shirley, NY, USA). The ETV1 (29E4) antibody was directly immobilized onto a CM5 sensor chip surface using an amine coupling kit (Cytiva). Before immobilization, the CM5 sensor surface was activated using a mixture of 400 mM 1-ethyl-3-(3-dimethylaminopropyl) carbodiimide (EDC) and 100 mM N-hydroxysuccinimide (NHS). The ETV1 antibody was diluted to 40 μg/ml in immobilization buffer (10 mM NaAc, pH 4.5) and injected into Fc4 sample channel at a flow rate of 10 μL/min. The amount of antibody (ligand) immobilized was about 5,000 RU. The chip was deactivated by 1 M Ethanolamine hydrochloride-NaOH (GE Healthcare Life Sciences, Piscataway, NJ) at a flow rate of 10 μL/min for 420 seconds. The reference Fc3 channel underwent similar procedures but without injecting the ligand. […] Different concentrations of the […] were then injected into the cell over both channels at a flow rate of 30 μL/min, with a contact time of 90 seconds, followed by a dissociation time of 210 seconds. The surface was regenerated with 10 mM Glycine-HCl, pH 1.5 after each injection to prepare for the injection of the next antibody dilution sample. Data analysis was performed on the Biacore T200 computer and with the Biacore T200 evaluation software, using the steady-state affinity model or 1:1 binding model.
The binding of the 29E4 mAb to its epitope sequence was further analyzed by using SPRi. After immobilizing the ETV1 mAb onto a matrix of dextran on the surface of a Sensor Chip to a level of 5000 response units (RU) with standard amine coupling (FIG. 4, panel A), different concentrations of the serially diluted peptide were then injected as an analyte into the cell over both channels for 300 seconds (contact time of 90 seconds, followed by a dissociation time of 210 seconds) to give a response of about 180 RU. The different binding affinity of each antibody dilution is depicted in the overlay plot of SPR sensorgrams and fitting curves (FIG. 4, panel B).

B1: ETV1 rabbit monoclonal antibody (29E4) (antibody, V domains shown)
VH: QELEESGGDLVKPGASLTLTCTASGFFFSAENHICWVRQAPGKGLEWIGCVYIGSYVGGSGDPYYASWAKGRFTISKTSSTTVTLQMSSLTAADTATYFCARDLGSLWGPGTLVTVSS
VL: DVVMTQTASSVSAAVGGTVTIACQSSQSVYDNNNLAWFQQKPGQPPKRLIYSASTLASGVSSRFKGSGYGTQFTLTISDVQCDDAATYYCVGAFSGYIFVFGGGTEVVVK
notes: constant regions are not; also called 29E4 mAb; ETV1 29E4 mAb
For B1, the “EC50 (read off the curve)” value [1] was roughly 0.1 µg/mL, the binding result [2] was “binds” and the binding result [3] was “binds”. B1: binds [4]; binds [5]; binds [6]. B1: binds [7]; binds [8]; binds [9]. It also gave a Kd [10] of 479 pM, a koff [10] of 0.000149 s⁻¹ and a kon [10] of 311000 M⁻¹ s⁻¹.
